Key:
[1] = system: T1, CC(C)(COP(=O)(O)OP(=O)(O)OC[C@H]1O[C@@H](n2cnc3c(N)ncnc32)[C@H](O)[C@@H]1OP(=O)(O)O)[C@@H](O)C(=O)NCCC(=O)NCCSC(=O)CC(=O)O; assay: purified protein, by the assay type; parameters: SucC/SucD-coupled CoA-SH release assay, NADH absorbance 340 nm, apparent KM for transacylation to ACP; conditions: pH 7.4; 30.0 °C
T1 construct: KS-AT didomain of PnB first module (Pn PKS module 2), recombinant, purified
Protocol: (§1) Acyltransferase steady state kinetic assay. The assay buffer (200 mM Tris, glycerol 5%v/v, 20 mM MgCl2, pH 7.4) was used to set up all other solutions for this assay. Four master mixes (MM1 to MM4) in 4x concentration were prepared. For MM1 containing the KS-AT proteins (KS-AT or KS-ATS->A mutants), the enzymes were adjusted to 2 µM (for transacylation) or to 4 µM (for hydrolysis) with assay buffer additionally containing 1 mM DTT and 0.1 mg/mL BSA. For MM2 highly pure and concentrated ACP were adjusted to 1600 µM concentration with the assay buffer. Substrate acyl-CoA containing MM3 was prepared with the assay buffer in varying substrate concentrations ranging from (4x concentration indicated here) 1 µM to 1 mM. MM4 contained 1.6 mM NADH, 20 mM ATP, 30 mM succinate, 10 mM phosphoenolpyruvate (stock solutions should be resuspended in assay buffer, or Tris 200 mM, pH 7.4). First, these compounds were mixed and assay buffer was added, leaving volume for Pyruvate Kinase/Lactic Dehydrogenase (PK/LDH), SucC and SucD. After mixing of the compounds, the enzymes were added to MM4 like following: 0.06 mM SucC, 0.06 mM SucD and 20% v/v of PK/LDH (Sigma-Aldrich) (40 µL PK/LDH for 200 µL MM4). To measure transacylation 25 µL MM3, 25 µL MM4, 25 µL MM2 were mixed and incubated 30 °C for one minute. The reaction was started using 25 µL MM1. To measure hydrolysis 25 µL MM3, 25 µL MM4, 25 µL assay buffer were mixed, incubated at 30 °C for one minute. The reaction was started with 25 µL MM1. In both cases after starting the reaction, the mixture was immediately transferred into a 1 cm quartz cuvette, preheated to 30 °C and the absorption was monitored at 340 nm with a Cary 60 UV vis (Agilent technologies). The reactions were measured in three to four technical replicates. Simultaneous to 16 Scheme S1: Steady state kinetic assay, relying on purified proteins. KS-AT didomains and standalone ACPs are used. Upon covalent binding of the acyl-residue to the AT, CoA-SH is released. With no ACP acceptor available, the acyl-residue is subsequently hydrolyzed by nucleophilic attack of water and the AT can bind a new acyl-residue. If holo-ACP is available, the acyl-residue is transferred and the AT can bind a new acyl-residue. Free CoA-SH is converted to succinyl-CoA by E. coli SucC/SucD. In this reaction ADP is produced, which can be used by pyruvate kinase/lactic dehydrogenase (PK/LDH) under NADH consumption. For Michaelis Menten plots with data collected with this assay refer to Figure S6. With the SucC/SucD‐based assay we determined kinetic parameters of PnB_KS‐AT1, PnB_KS‐AT2, PnC_KS‐AT and PnD_KS‐AT for hydrolysis and transacylation (Table S3, Figure S7). As negative control AT catalytic knockouts were used. […] These measurements were independently confirmed by mass spectrometric analysis of acylated ACPs, in which we exclusively detected malonyl‐ACP formation (Tables S1 and S4). […] K M between 4 μM to 11 μM. Rates for transacylation were between 10‐ to 35‐ fold higher (app. k cat of 28 min^−1–140 min^−1) at 2.5 to 7.7 fold higher catalytic efficiency (Table S3).

[2] = system: T1, CC(C)(COP(=O)(O)OP(=O)(O)OC[C@H]1O[C@@H](n2cnc3c(N)ncnc32)[C@H](O)[C@@H]1OP(=O)(O)O)[C@@H](O)C(=O)NCCC(=O)NCCSC(=O)CC(=O)O; assay: SucC/SucD - pyruvate kinase/lactate dehydrogenase coupled assay of CoA release; assay type: biochemical, Streptomyces platensis; conditions: hydrolysis
[3] = system: T2, CC(C)(COP(=O)(O)OP(=O)(O)OC[C@H]1O[C@@H](n2cnc3c(N)ncnc32)[C@H](O)[C@@H]1OP(=O)(O)O)[C@@H](O)C(=O)NCCC(=O)NCCSC(=O)CC(=O)O; assay: purified protein, by the assay type; parameters: SucC/SucD-coupled CoA-SH release assay, NADH absorbance 340 nm, apparent KM for transacylation to ACP; conditions: pH 7.4; 30.0 °C
T2 construct: KS-AT didomain of PnB second module (Pn PKS module 3), recombinant, purified
Protocol: as §1

[4] = system: T2, CC(C)(COP(=O)(O)OP(=O)(O)OC[C@H]1O[C@@H](n2cnc3c(N)ncnc32)[C@H](O)[C@@H]1OP(=O)(O)O)[C@@H](O)C(=O)NCCC(=O)NCCSC(=O)CC(=O)O; assay: SucC/SucD - pyruvate kinase/lactate dehydrogenase coupled assay of CoA release; assay type: biochemical, Streptomyces platensis; conditions: hydrolysis
[5] = system: T3, CC(C)CC[C@@H](C(=O)O)C(=O)SCCNC(=O)CCNC(=O)[C@H](O)C(C)(C)COP(=O)(O)OP(=O)(O)OC[C@H]1O[C@@H](n2cnc3c(N)ncnc32)[C@H](O)[C@@H]1OP(=O)(O)O; assay: as above; assay type: biochemical, Streptomyces platensis; conditions: hydrolysis
T3 construct: ketosynthase-acyltransferase (KS-AT) didomain of PnC, recombinant, purified
Text: (§2) SucC/SucD - pyruvate kinase/lactate dehydrogenase coupled assay of CoA release on PnC_KS-AT

[6] = system: T4, CCCCCC[C@@H](C(=O)O)C(=O)SCCNC(=O)CCNC(=O)[C@H](O)C(C)(C)COP(=O)(O)OP(=O)(O)OC[C@H]1O[C@@H](n2cnc3c(N)ncnc32)[C@H](O)[C@@H]1OP(=O)(O)O; assay: as above; assay type: biochemical, Streptomyces platensis; conditions: hydrolysis
T4 construct: ketosynthase-acyltransferase (KS-AT) didomain of PnC, recombinant, purified
Text: as §2

[7] = system: T5, CCCC[C@@H](C(=O)O)C(=O)SCCNC(=O)CCNC(=O)[C@H](O)C(C)(C)COP(=O)(O)OP(=O)(O)OC[C@H]1O[C@@H](n2cnc3c(N)ncnc32)[C@H](O)[C@@H]1OP(=O)(O)O; assay: as above; assay type: biochemical, Streptomyces platensis; conditions: hydrolysis
T5 construct: ketosynthase-acyltransferase (KS-AT) didomain of PnC, recombinant, purified
Text: as §2

[8] = system: T6, C[C@@H](C(=O)O)C(=O)SCCNC(=O)CCNC(=O)[C@H](O)C(C)(C)COP(=O)(O)OP(=O)(O)OC[C@H]1O[C@@H](n2cnc3c(N)ncnc32)[C@H](O)[C@@H]1OP(=O)(O)O; assay: as above; assay type: biochemical, Streptomyces platensis; conditions: hydrolysis
T6 construct: ketosynthase-acyltransferase (KS-AT) didomain of PnC, recombinant, purified
Text: as §2

[9] = system: T7, CC(C)(COP(=O)(O)OP(=O)(O)OC[C@H]1O[C@@H](n2cnc3c(N)ncnc32)[C@H](O)[C@@H]1OP(=O)(O)O)[C@@H](O)C(=O)NCCC(=O)NCCSC(=O)CC(=O)O; assay: as above; assay type: biochemical, Streptomyces platensis; conditions: hydrolysis
T7 construct: ketosynthase-acyltransferase (KS-AT) didomain of PnC, recombinant, purified
Text: as §2

[10] = system: T8, CC[C@@H](C(=O)O)C(=O)SCCNC(=O)CCNC(=O)[C@H](O)C(C)(C)COP(=O)(O)OP(=O)(O)OC[C@H]1O[C@@H](n2cnc3c(N)ncnc32)[C@H](O)[C@@H]1OP(=O)(O)O; assay: as above; assay type: biochemical, Streptomyces platensis; conditions: hydrolysis
T8 construct: ketosynthase-acyltransferase (KS-AT) didomain of PnC, recombinant, purified
Text: as §2

[11] = system: T9, CC(C)(COP(=O)(O)OP(=O)(O)OC[C@H]1O[C@@H](n2cnc3c(N)ncnc32)[C@H](O)[C@@H]1OP(=O)(O)O)[C@@H](O)C(=O)NCCC(=O)NCCSC(=O)CC(=O)O; assay: purified protein, by the assay type; parameters: SucC/SucD-coupled CoA-SH release assay, NADH absorbance 340 nm, apparent KM for transacylation to ACP; conditions: pH 7.4; 30.0 °C
T9 construct: KS-AT didomain of PnD, recombinant, purified
Protocol: as §1

[12] = system: T9, CC(C)(COP(=O)(O)OP(=O)(O)OC[C@H]1O[C@@H](n2cnc3c(N)ncnc32)[C@H](O)[C@@H]1OP(=O)(O)O)[C@@H](O)C(=O)NCCC(=O)NCCSC(=O)CC(=O)O; assay: SucC/SucD - pyruvate kinase/lactate dehydrogenase coupled assay of CoA release; assay type: biochemical, Streptomyces platensis; conditions: hydrolysis

In the case of PnB_KS-AT1 (Streptomyces platensis), the Km [1] is reported as 27 ± 2.6 µM, the kcat [1] is reported as 2.33 ± 0.0717 s⁻¹ and the kcat/Km [1] is reported as 86700 M⁻¹ s⁻¹. It also gave a Km [2] of 4.3 ± 0.8 µM and a kcat [2] of 0.067 ± 0.0025 s⁻¹.
PnB_KS-AT2 (Streptomyces platensis) was tested, and the Km [3] was 16 ± 1.7 µM, the kcat [3] was 1.23 ± 0.0333 s⁻¹ and the Km [4] was 5.2 ± 0.8 µM. The kcat [4] was 0.05 ± 0.00233 s⁻¹.
With PnC_KS-AT (Streptomyces platensis) the Km [5] was 20 ± 6.7 µM, the kcat [5] was 0.0133 ± 0.00133 s⁻¹ and the kcat/Km [5] was 667 M⁻¹ s⁻¹. It also gave a Km [6] of 19 ± 15.5 µM, a kcat [6] of 0.00667 ± 0.00133 s⁻¹ and a kcat/Km [6] of 333 M⁻¹ s⁻¹. For the same substance, the Km [7] was 6.2 ± 1.4 µM, the kcat [7] was 0.0117 ± 0.000667 s⁻¹ and the kcat/Km [7] was 1830 M⁻¹ s⁻¹. The Km [8] was 73 ± 33 µM, the kcat [8] was 0.0233 ± 0.005 s⁻¹ and the kcat/Km [8] was 333 M⁻¹ s⁻¹. The Km [9] was 53 ± 41 µM, the kcat [9] was 0.01 ± 0.0025 s⁻¹ and the kcat/Km [9] was 167 M⁻¹ s⁻¹. For the same substance, the Km [10] was 6 ± 1.8 µM, the kcat [10] was 0.015 ± 0.001 s⁻¹ and the kcat/Km [10] was 2500 M⁻¹ s⁻¹.
PnD_KS-AT (Streptomyces platensis) showed a Km [11] of 44 ± 7.2 µM, a kcat [11] of 0.467 ± 0.03 s⁻¹ and a Km [12] of 11.5 ± 3.3 µM. The kcat [12] was 0.05 ± 0.0033 s⁻¹.
